From paper PMC13031973 (Nature Communications, 2026)

B1: MIDN(337-432) (domain or fragment)
chain: SPASPAPDLAPRTTSCEKLTAAPSASLLQGQSQIRMCKPPGDRLRQTENRATRCKVERLQLLLQQKRLRRKARRDARGPYHWSPSRKAGRSDSSSS
B2: MIDN(337-468) (domain or fragment)
chain: SPASPAPDLAPRTTSCEKLTAAPSASLLQGQSQIRMCKPPGDRLRQTENRATRCKVERLQLLLQQKRLRRKARRDARGPYHWSPSRKAGRSDSSSSGGGGSPSEASGLGLDFEDSVWKPEVNPDIKSEFVVA

Experiments:
[1] = biological target: T1, purified proteasome subunit RPN1 (PSMD2) (human, UniProt Q13200 1-908); assay: SPR
T1 sequence (Q13200 whole entry): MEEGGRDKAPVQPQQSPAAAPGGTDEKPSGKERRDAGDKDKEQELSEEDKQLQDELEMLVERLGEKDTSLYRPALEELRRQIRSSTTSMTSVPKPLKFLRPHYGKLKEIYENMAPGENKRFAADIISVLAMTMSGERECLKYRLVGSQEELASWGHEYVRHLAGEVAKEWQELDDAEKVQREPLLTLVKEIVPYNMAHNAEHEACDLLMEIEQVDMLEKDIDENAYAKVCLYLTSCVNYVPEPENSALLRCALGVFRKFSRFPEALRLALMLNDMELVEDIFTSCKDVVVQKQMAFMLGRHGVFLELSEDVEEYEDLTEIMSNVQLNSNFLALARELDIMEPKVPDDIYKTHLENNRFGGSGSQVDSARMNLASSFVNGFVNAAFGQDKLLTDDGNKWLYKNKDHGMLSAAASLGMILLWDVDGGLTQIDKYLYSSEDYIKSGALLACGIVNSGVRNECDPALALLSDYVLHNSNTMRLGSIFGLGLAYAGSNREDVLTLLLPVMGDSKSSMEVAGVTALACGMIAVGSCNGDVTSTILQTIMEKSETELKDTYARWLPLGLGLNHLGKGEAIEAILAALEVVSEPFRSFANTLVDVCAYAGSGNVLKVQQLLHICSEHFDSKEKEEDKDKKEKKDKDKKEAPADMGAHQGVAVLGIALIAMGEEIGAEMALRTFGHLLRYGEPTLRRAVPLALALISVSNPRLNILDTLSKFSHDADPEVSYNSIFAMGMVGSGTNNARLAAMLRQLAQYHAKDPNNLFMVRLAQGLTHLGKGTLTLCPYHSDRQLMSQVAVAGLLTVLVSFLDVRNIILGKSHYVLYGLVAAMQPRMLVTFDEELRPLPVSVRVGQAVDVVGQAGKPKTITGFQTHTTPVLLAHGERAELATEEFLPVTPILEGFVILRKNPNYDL

[2] = biological target: T1, purified proteasome subunit RPN1 (PSMD2); assay: ITC

Binder | Kd [1] | Kd [2]
B1 | 663 nM | ~146 nM
B2 | 390 nM | ~130 nM
